Molecular target: T1, SurA (E. coli, UniProt P0ABZ6 21-428)
T1 sequence: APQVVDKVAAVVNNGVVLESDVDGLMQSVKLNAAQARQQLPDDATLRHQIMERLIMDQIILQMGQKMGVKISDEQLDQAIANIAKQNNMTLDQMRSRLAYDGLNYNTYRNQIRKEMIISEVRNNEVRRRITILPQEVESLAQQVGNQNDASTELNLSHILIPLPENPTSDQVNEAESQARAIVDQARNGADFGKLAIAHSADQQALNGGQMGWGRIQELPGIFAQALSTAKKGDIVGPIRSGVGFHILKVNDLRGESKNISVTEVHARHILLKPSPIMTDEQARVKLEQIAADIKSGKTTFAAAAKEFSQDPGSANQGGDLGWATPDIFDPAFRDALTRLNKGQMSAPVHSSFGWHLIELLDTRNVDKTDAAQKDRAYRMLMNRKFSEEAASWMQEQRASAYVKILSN
Assay: cross-linking

B1: uOmpX (natural protein, E. coli, UniProt P0A917 24-171, looked up)
chain: ATSTVTGGYAQSDAQGQMNKMGGFNLKYRYEEDNSPLGVIGSFTYTEKSRTASSGDYNKNQYYGITAGPAYRINDWASIYGVVGVGYGKFQTTEYPTYKHDTSDYGFSYGAGLQFNPMENVALDFSYEQSRIRSVDVGTWIAGVGYRF
- binding result: binds
